Experimental data taken from patent US20240076371A1, “COMPOSITIONS AND METHODS FOR TREATING OSTEOARTHRITIS, RHEUMATOID ARTHRITIS, AND JOINT AND TENDON DISORDERS” (BOARD OF REGENTS, THE UNIVERSITY OF TEXAS SYSTEM, priority 2021, published 2024).

Molecular target: T1, Cx43 hemichannel (Mus musculus, UniProt P23242)
T1 construct: from tissue; host or cells: synovium of male C57BL/6 mice after DMM surgery (in vivo)
Experiment: In vivo Evans Blue dye uptake assay in synovium after DMM
Conditions: 25 mg/kg at 30 mins after DMM surgery, Evans Blue 200 mg/kg at two weeks after the treatment; DMM increased opening by 2 folds
Procedure: In vivo dye uptake assay. Evans Blue dye (Mw: 900 Da) (200 mg/kg) and FITC-dextran (Mw: 10,000 Da) (200 mg/kg) were co-injected […] post-antibody treatment via the tail vein. One-hour post administration of the dye, mice were anesthetized, and cardiac perfusion was performed with cold PBS and 4% paraformaldehyde. Both hindlimbs were isolated and prepared for frozen sections. Sections were stained with DAPI and photographed using the Keyence microscope (BZ-X710, Keyence, Osaka, Japan). The intensity of dye uptake was quantified by NIH Image J software.
To determine the Cx43 hemichannel activity in vivo, Evans Blue dye uptake assay was performed. Mice were treated with saline or Cx43 antibody (M1 antibody) (25 mg/kg) at 30 mins after DMM surgery. Tail vein injection of Evans Blue dye (200 mg/kg) was performed at two weeks after the treatment, and Evans Blue dye uptake intensity was quantified in synovium region. […] Frozen sections prepared from saline-treated mice were immuno-labeled with the M1 antibody, further validated the role of the M1 antibody in blocking the osteoarthritis induced hemichannel opening in synoviocytes that express Cx43 (FIG. 11C).

T1 sequence (P23242 whole entry): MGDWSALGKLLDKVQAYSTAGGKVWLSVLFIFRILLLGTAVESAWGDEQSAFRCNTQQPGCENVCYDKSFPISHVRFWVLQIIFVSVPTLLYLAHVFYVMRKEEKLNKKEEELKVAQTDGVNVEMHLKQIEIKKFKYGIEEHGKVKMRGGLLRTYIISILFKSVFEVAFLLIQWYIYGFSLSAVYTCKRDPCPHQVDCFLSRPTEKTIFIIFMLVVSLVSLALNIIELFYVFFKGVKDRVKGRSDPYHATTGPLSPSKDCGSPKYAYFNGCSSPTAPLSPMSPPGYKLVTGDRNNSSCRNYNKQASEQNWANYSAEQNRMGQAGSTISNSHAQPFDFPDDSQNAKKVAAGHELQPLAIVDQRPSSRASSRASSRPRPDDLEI

B1: M1 antibody: antibody with variable heavy chain SEQ ID NO: 58 and variable light chain SEQ ID NO: 60; inhibits or blocks opening of Cx43 hemichannel (antibody, V domains shown)
VH: EVQLQQPGAELVKPGASVKLSCKASGYTFTSYYMYWVKQRPGQGLEWIGGINPSNGGTNFNEKFKNKATLTVDKSSSTAYMQLSSLTSEDSAVYYCTREGNPYYTMNYWGQGTSVTVSS
VL: DIVMTQSPSSLSVSAGEKVTMSCKSSQSLLNSGNQKTYLAWYQQKPGQPPKLLIYGASTRESGVPDRFTGSGSGTDFTLTISSVQAEDLAVYYCQNDHSYPFTFGSGTKLEIK
With B1 the “DMM-increased hemichannel opening (Evans Blue dye uptake intensity in synovium region)” value was “blocked”.
